T1: His6-Fli-I G1–6 (human, UniProt Q13045 461-1269)
T1 sequence: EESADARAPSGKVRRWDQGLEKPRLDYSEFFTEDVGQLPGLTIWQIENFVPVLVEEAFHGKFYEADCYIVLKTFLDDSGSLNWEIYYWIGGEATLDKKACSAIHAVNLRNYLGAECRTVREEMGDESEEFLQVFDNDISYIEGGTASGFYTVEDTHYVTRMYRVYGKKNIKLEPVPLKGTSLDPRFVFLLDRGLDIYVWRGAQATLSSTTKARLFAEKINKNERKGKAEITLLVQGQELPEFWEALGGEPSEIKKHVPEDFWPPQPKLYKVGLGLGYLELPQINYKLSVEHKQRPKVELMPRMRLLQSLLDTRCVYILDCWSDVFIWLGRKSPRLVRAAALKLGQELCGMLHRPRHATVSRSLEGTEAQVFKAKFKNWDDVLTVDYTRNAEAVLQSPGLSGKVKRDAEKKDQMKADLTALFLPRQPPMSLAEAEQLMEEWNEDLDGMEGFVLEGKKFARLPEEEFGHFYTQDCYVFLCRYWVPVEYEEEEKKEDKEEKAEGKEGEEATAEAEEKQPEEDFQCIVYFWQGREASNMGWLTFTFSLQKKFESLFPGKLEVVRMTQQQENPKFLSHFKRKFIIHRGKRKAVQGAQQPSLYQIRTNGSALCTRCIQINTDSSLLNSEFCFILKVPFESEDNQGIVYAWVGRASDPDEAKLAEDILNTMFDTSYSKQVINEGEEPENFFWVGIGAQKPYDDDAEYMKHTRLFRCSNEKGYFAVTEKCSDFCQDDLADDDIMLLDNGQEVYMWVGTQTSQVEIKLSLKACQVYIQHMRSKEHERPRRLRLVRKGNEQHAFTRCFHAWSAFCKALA

T2: His6-Daam1 NT (human, UniProt Q9Y4D1 41-477)
T2 sequence: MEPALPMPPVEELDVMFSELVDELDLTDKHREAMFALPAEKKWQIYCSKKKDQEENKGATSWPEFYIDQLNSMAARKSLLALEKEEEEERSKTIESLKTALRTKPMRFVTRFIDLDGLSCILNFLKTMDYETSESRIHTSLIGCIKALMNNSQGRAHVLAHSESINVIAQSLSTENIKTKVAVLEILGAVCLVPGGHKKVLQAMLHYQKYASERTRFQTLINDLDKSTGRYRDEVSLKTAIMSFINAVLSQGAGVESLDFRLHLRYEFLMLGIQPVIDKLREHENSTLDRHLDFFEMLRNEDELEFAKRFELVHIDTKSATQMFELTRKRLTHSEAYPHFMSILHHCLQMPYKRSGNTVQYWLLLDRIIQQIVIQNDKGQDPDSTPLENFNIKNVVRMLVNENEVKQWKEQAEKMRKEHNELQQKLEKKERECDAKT

B1: GST-Daam1 NT (domain or fragment)
chain: T2 sequence
B2: His6-Fli-I G4–6 (domain or fragment)
chain: KKDQMKADLTALFLPRQPPMSLAEAEQLMEEWNEDLDGMEGFVLEGKKFARLPEEEFGHFYTQDCYVFLCRYWVPVEYEEEEKKEDKEEKAEGKEGEEATAEAEEKQPEEDFQCIVYFWQGREASNMGWLTFTFSLQKKFESLFPGKLEVVRMTQQQENPKFLSHFKRKFIIHRGKRKAVQGAQQPSLYQIRTNGSALCTRCIQINTDSSLLNSEFCFILKVPFESEDNQGIVYAWVGRASDPDEAKLAEDILNTMFDTSYSKQVINEGEEPENFFWVGIGAQKPYDDDAEYMKHTRLFRCSNEKGYFAVTEKCSDFCQDDLADDDIMLLDNGQEVYMWVGTQTSQVEIKLSLKACQVYIQHMRSKEHERPRRLRLVRKGNEQHAFTRCFHAWSAFCKALA
B3: GST-Fli-I G4–6 (domain or fragment)
chain: B2 chain
B4: GST-Daam1 DAD (domain or fragment)
chain: NMRKKKEEEERRARMEAQLKEQRERERKMRKAKENSEESGEFDDLVSALRSGEVFDKDLSKLKRNRKRITNQMTDSSRERPITKLNF

Assays:
Assay in all cases: pull-down
[1] = target: His6-Daam1 CT (human, UniProt Q9Y4D1 490-1078)
[2] = target: GST-Daam1 CT WT (human, UniProt Q9Y4D1 490-1078)
[3] = target: GST-Daam1 CT L1040A (human, UniProt Q9Y4D1 490-1078, L1040A)
[4] = target: T1, His6-Fli-I G1–6
[5] = target: T2, His6-Daam1 NT

Row | Binder | binding result [1] | binding result [2] | binding result [3] | binding result [4] | binding result [5]
1 | B1 | binds |  |  |  | 
2 | B2 | binds | binds | binds |  | 
3 | B3 | binds |  |  |  | 
4 | B4 |  |  |  | binds | binds

Source: article PMC2871490 (The Journal of Biological Chemistry, 2010)
